In PMC6366758:

Tests used:
[1] = biological target: RSV F glycoprotein nanoparticles (human respiratory syncytial virus A2 (RSV/A2))
[2] = biological target: Post-fusion F (human respiratory syncytial virus A2 (RSV/A2)); test: SPR
[3] = biological target: RSV F710 post-fusion (human respiratory syncytial virus A2 (RSV/A2) | bacteriophage T4); test: cryo-EM structure; single particle cryo-EM of the purified RSV F710-R4.C6 Fab complex on graphene oxide grids; C3 symmetry; overall 3.9 A

## Motavizumab (antibody)
[1]
  RSV/A Long neutralization (IC50), micro-neutralization assay on HEp-2 cells: 0.0208 µg/mL

## Palivizumab
[2]
  Kd: 0.34 nM
  koff: 5.79e-05 s⁻¹

## RSV F710 post-fusion
[3]
  stoichiometry N: 3
